Experimental data as given in the supplement of paper PMC11246515.
± gives the standard deviation of the averaged measurements.

Assay: total protein half-life in vivo (active degradation + dilution); higher = more stable protein
[1] = E. coli NCM3722 delta-clpP delta-lon delta-hslV, growth: N-lim chemostat, doubling time 6 h
[2] = E. coli NCM3722 delta-clpP, growth: N-lim chemostat, doubling time 6 h
[3] = E. coli NCM3722 delta-hslV, growth: N-lim chemostat, doubling time 6 h
[4] = E. coli NCM3722 delta-lon, growth: N-lim chemostat, doubling time 6 h
[5] = E. coli NCM3722 delta-smpB, growth: N-lim chemostat, doubling time 6 h
[6] = wild type E. coli NCM3722, growth: C-lim chemostat, doubling time 3 h
[7] = wild type E. coli NCM3722, growth: C-lim chemostat, doubling time 6 h
[8] = wild type E. coli NCM3722, growth: C-lim chemostat, doubling time 12 h
[9] = wild type E. coli NCM3722, growth: N-lim chemostat, doubling time 6 h
[10] = wild type E. coli NCM3722, growth: N-lim chemostat, doubling time 12 h
[11] = wild type E. coli NCM3722, growth: P-lim chemostat, doubling time 6 h
[12] = wild type E. coli NCM3722, growth: P-lim chemostat, doubling time 12 h

Sequence | total protein half-life in vivo [1] [h] | total protein half-life in vivo [2] [h] | total protein half-life in vivo [3] [h] | total protein half-life in vivo [4] [h] | total protein half-life in vivo [5] [h] | total protein half-life in vivo [6] [h] | total protein half-life in vivo [7] [h] | total protein half-life in vivo [8] [h] | total protein half-life in vivo [9] [h] | total protein half-life in vivo [10] [h] | total protein half-life in vivo [11] [h] | total protein half-life in vivo [12] [h]
MGFKCGIVGLPNVGKSTLFNALTKAGIEAANFPFCTIEPNTGVVPMPDPRLDQLAEIVKPQRTLPTTMEFVDIAGLVKGASKGEGLGNQFLTNIRETEAIGHVVRCFENDNIIHVSGKVNPADDIEVINTELALADLDTCERAIHRVQKKAKGGDKDAKAELAVLEKCLPQLENAGMLRALDLSAEEKAAIRYLSFLTLKPTMYIANVNEDGFENNPYLDQVREIAAKEGSVVVPVCAAVEADIAELDDEERDEFMQELGLEEPGLNRVIRAGYKLLNLQTYFTAGVKEVRAWTIPVGATAPQAAGKIHTDFEKGFIRAQTISFEDFITYKGEQGAKEAGKMRAEGKDYIVKDGDVMNFLFNV [P0ABU2] | 3.92 ± 0.14 | 3.74 ± 0.63 | 3.66 ± 0.24 | 4.72 ± 0.67 | 3.69 ± 0.13 | 3.61 ± 0.17 | 4.77 ± 0.28 | 9.13 ± 0.49 | 3.5 ± 0.18 | 5.15 ± 0.31 | 5.12 ± 0.4 | 9.68 ± 0.37
MAANAFVRARIDEDLKNQAADVLAGMGLTISDLVRITLTKVAREKALPFDLREPNQLTIQSIKNSEAGIDVHKAKDADDLFDKLGI | 2.38 ± 0.28 | – | – | – | – | – | 0.925 ± 0.13 | 0.789 | 0.421 | 4.6 | 0.432 | 1.38
MKIVKAEVFVTCPGRNFVTLKITTEDGITGLGDATLNGRELSVASYLQDHLCPQLIGRDAHRIEDIWQFFYKGAYWRRGPVTMSAISAVDMALWDIKAKAANMPLYQLLGGASREGVMVYCHTTGHSIDEALDDYARHQELGFKAIRVQCGIPGMKTTYGMSKGKGLAYEPATKGQWPEEQLWSTEKYLDFMPKLFDAVRNKFGFNEHLLHDMHHRLTPIEAARFGKSIEDYRMFWMEDPTPAENQECFRLIRQHTVTPIAVGEVFNSIWDCKQLIEEQLIDYIRTTLTHAGGITGMRRIADFASLYQVRTGSHGPSDLSPVCMAAALHFDLWVPNFGVQEYMGYSEQMLEVFPHNWTFDNGYMHPGDKPGLGIEFDEKLAAKYPYEPAYLPVARLEDGTLWNW | 5.64 ± 0.3 | – | – | – | – | 3.61 ± 0.2 | 6.03 ± 0.18 | 10.5 ± 1.8 | – | – | 7.33 | > 16
MTKPYVRLDKNDAAVLLVDHQAGLLSLVRDIEPDKFKNNVLALGDLAKYFNLPTILTTSFETGPNGPLVPELKAQFPDTPYIARPGNINAWDNEDFVKAVKATGKKQLIIAGVVTEVCVAFPALSAIEEGFDVFVVTDASGTFNEITRHSAWDRLSQAGAQLMTWFGVACELHRDWRNDIEGLATLFSNHIPDYRNLMTSYDTLTKQK | 6.75 ± 1.6 | 5.73 ± 0.18 | 5.4 ± 0.7 | 5.666 ± 0.053 | 4.69 ± 0.19 | 3.0124 ± 0.0024 | – | 10.3 ± 1.9 | 5.17 ± 0.61 | 9.22 ± 0.33 | 5.84 ± 0.94 | 12.9 ± 1.1
MSKTHLTEQKFSDFALHPKVVEALEKKGFHNCTPIQALALPLTLAGRDVAGQAQTGTGKTMAFLTSTFHYLLSHPAIADRKVNQPRALIMAPTRELAVQIHADAEPLAEATGLKLGLAYGGDGYDKQLKVLESGVDILIGTTGRLIDYAKQNHINLGAIQVVVLDEADRMYDLGFIKDIRWLFRRMPPANQRLNMLFSATLSYRVRELAFEQMNNAEYIEVEPEQKTGHRIKEELFYPSNEEKMRLLQTLIEEEWPDRAIIFANTKHRCEEIWGHLAADGHRVGLLTGDVAQKKRLRILDEFTRGDLDILVATDVAARGLHIPAVTHVFNYDLPDDCEDYVHRIGRTGRAGASGHSISLACEEYALNLPAIETYIGHSIPVSKYNPDALMTDLPKPLRLTRPRTGNGPRRTGAPRNRRRSG [P0A8J8] | 6.02 ± 0.1 | 5.9 ± 0.37 | 5.52 ± 0.76 | 5.16 ± 0.18 | 4.94 ± 0.49 | 3.18 ± 0.11 | 5.73 ± 0.11 | 9.86 ± 0.77 | 4.71 ± 0.18 | 7.89 ± 0.44 | 5.06 ± 0.39 | 9.85 ± 0.23
MIEIESRELADIPVLHAYPVGQKDTPLPCVIFYHGFTSSSLVYSYFAVALAQAGLRVIMPDAPDHGSRFSGDAARRLNQFWQILLQSMQEFTTLRAAIAEENWLLDDRLAVGGASMGAMTALGITARHPTVRCTASMMGSGYFTSLARSLFPPLIPETAAQQNEFNNIVAPLAEWEATNHLEQLSDRPLLLWHGLDDDVVPADESLRLQQALSETGRDKLLTCSWQPGVRHRITPEALDAAVTFFRQHL | 4.25 ± 0.61 | – | 4.061 ± 0.029 | 4.32 ± 0.38 | 3.95 ± 0.12 | 3.24 ± 0.097 | 5.72 ± 0.33 | 11 ± 0.45 | 4.11 ± 0.3 | 6.87 ± 0.64 | 5.95 ± 0.17 | 12.2 ± 0.79
MKKRKTVKKRYVIALVIVIAGLITLWRILNAPVPTYQTLIVRPGDLQQSVLATGKLDALRKVDVGAQVSGQLKTLSVAIGDKVKKDQLLGVIDPEQAENQIKEVEATLMELRAQRQQAEAELKLARVTYSRQQRLAQTKAVSQQDLDTAATEMAVKQAQIGTIDAQIKRNQASLDTAKTNLDYTRIVAPMAGEVTQITTLQGQTVIAAQQAPNILTLADMSAMLVKAQVSEADVIHLKPGQKAWFTVLGDPLTRYEGQIKDVLPTPEKVNDAIFYYARFEVPNPNGLLRLDMTAQVHIQLTDVKNVLTIPLSALGDPVGDNRYKVKLLRNGETREREVTIGARNDTDVEIVKGLEAGDEVVIGEAKPGAAQ | 6.09 ± 0.067 | – | – | 6.45 ± 0.1 | 6.19 ± 0.26 | 3.07 ± 0.068 | 6.04 ± 0.16 | 12.54 ± 0.11 | 6.37 ± 0.067 | 13.5 ± 1.4 | 5.83 ± 0.37 | 12 ± 0.15
